According to patent publication US20250361277A1, “PROTEASE-RESPONSIVE SURFACE-POTENTIAL-TUNABLE PEPTIDE CONSTRUCTS FOR SELECTIVE IMAGING AND ACCURATE INHIBITOR SCREENING” (The Regents of the University of California, priority 2024, published 2025):

Experiments:
[1] = test system: plasmid transfected HEK 293T cells; assay type: cell-based
[2] = DLS hydrodynamic size and zeta potential of PSGMR without and with Mpro; assay type: physicochemical
Method: To validate the enzyme digestion efficiency, PSGMR was incubated with different concentrations of Mpro. […] No increase in fluorescence was detected in the presence of the GC376, thus showing that the fluorescence increase was due to Mpro-mediated peptide cleavage. […] PSGMR was also treated under identical conditions with several commercial proteins to investigate probe specificity: papain-like protease, thrombin, bovine serum albumin, and hemoglobin. […] Dynamic light scattering (DLS) tests and transmission electron microscopy (TEM) of PSGMR were performed to de-termine the change of particle size and surface potential distribution after incubation with Mpro. The average hydro-dynamic size of PSGMR increased from 142 nm to 396 nm (FIG. 1h), and the mean zeta potential value decreased from 23.97 mV to 12.46 mV (FIG. 1i). […] This aggregation was confirmed by TEM (FIG. 1j). The 20 mM Tri-HCl buffer can lead to a uniform nanoparticle (˜78 nm) (Figure S18), and β-sheet structure of PSGMR was observed after incubation with Mpro or at high concentrations (Figures S19-S22).
The 1H and 13C NMR spectra were measured on a BRUKER ARX 300™ NMR spectrometer using chloroform-d (CDCl3-d) or dimethyl sulfoxide-d6 (DMSO-d6) as solvent and tetramethylsilane (TMS) as internal reference. Splitting patterns are reported as s (single), d (doublet), t (triplet), and m (multiplet). Peptides were synthesized using an AAPPTec ECLIPSE™ system through standard solid phase Fmoc syntheses on rink-amide resin. Electrospray ionization mass spectrometry (ESI-MS) data was acquired by using a MICROMASS QUATTRO ULTIMA™ mass spectrometer. High resolution mass spectra (HRMS) were recorded on a BRUKER MICROTOF II™ mass spectrometer system. High performance liquid chromatography (HPLC) was performed by using a SHIMADZU™ LC-40 HPLC system under the wavelength of 195 nm, 254 nm, and 405 nm. The sample was dissolved in water or acetonitrile, applied on a ZORBAX 300 BS™ C18 column (5 um, 9.4×250 mm) from Agilent, and eluted at 1.5 mL/min with a 40 min gradient from 10% to 95% solvent B where solvent A is water (0.05% TFA solution) and solvent B is acetonitrile (0.05% TFA solution). All products were purified by HPLC to reach a purity of 90%. UV-Vis absorption and fluorescence spectra were performed on a SYNERGY H1™ microplate reader (BioTek). Confocal laser scanning microscopy images were obtained on a Zeiss LSM880 confocal laser scanning microscope (Zeiss). Dynamic light scattering (DLS) measurements were performed on a NANO-ZS90 ZETASIZER™ (Malvern) to determine hydrodynamic sizes and zeta potential values of the nanosystems studied. Transmission electron microscopy (TEM) images were acquired using an FEI TECNAI F20™ instrument at an operation voltage of 200 kV.

HEK 293T cells = conditions: HEK 293T cells, 48 h
[3] = test system: noninfected TMPRSS2-Vero cells
[4] = biological target: Recombinant SARS-CoV-2 Mpro (Severe acute respiratory syndrome coronavirus 2, UniProt P0DTD1); conditions: pH 8
[5] = test system: SARS-CoV-2 infected TMPRSS2-Vero cells; assay type: cell-based, SARS-CoV-2 (USA-WA1/2020)
Recombinant Mpro = Recombinant Mpro (Severe acute respiratory syndrome coronavirus 2, UniProt P0DTD1)
[6] = test system: Mpro plasmid-transfected HEK 293T cells

Substance: (Pra)KLVFFGGGSAVLQ/SGFRKMAGGGRRRRRR [PSGMR]
- fluorescence of FLIPGFP, PSGMR [1]: weak green and yellow fluo-rescence
- fluorescence of FLIPGFP, PSGMR and PI [1]: Strong green, yellow and red fluorescence
- green, red and yellow fluorescence intensities with incubation time [1]: markedly enhanced with the longer incubation time
- average hydrodynamic size ([2]; after incubation with Mpro): 396 nm
- mean zeta potential value ([2]; after incubation with Mpro): 12.46 mV
- average hydrodynamic size ([2]; before incubation with Mpro): 142 nm
- mean zeta potential value ([2]; before incubation with Mpro): 23.97 mV
- high concentration that caused significant cytotoxicity (HEK 293T cells): 40 µM
- red and yellow fluorescence and cell morphology of noninfected cells [3]: weak red and yellow fluorescence with normal cell morphology
- cleavage by Mpro [4]: can be cleaved by Mpro between Q and S
- killing / inhibition of infected cells [5]: can selectively kill SARS-CoV-2-infected cells
- yellow (probe) and red (PI) fluorescence in infected cells [5]: strong yellow and red fluorescence
- yellow and red fluorescence of infected cells ([5]; 10 μM probe): significantly enhanced
- average red fluorescence intensity of infected cells, higher than with PMR ([5]; PI channel): 600%
- red and yellow fluorescence and cell morphology of infected cells ([5]; PSGMR versus PMR): bright red and yellow fluorescence with obvious cell mor-phologic dilatation
- average yellow fluorescence intensity of infected cells, higher than with PMR ([5]; probe channel): 569%
- aggregation and fluorescence on incubation with Mpro (time-dependent spectra) (Recombinant Mpro): can aggregate easily with strong fluorescence
- fluorescence intensity with different concentrations of Mpro (Recombinant Mpro): gradually enhanced with in-creasing Mpro concentration
- probe specificity: fluorescence intensity with different proteins (Recombinant Mpro): clearly enhanced selectively with Mpro
- time to fluorescence plateau at 590 nm (Recombinant Mpro): ≤ 20 min
- cell viability after incubation with probe ([6]; Mpro plasmid-transfected cells): decreased
- cytotoxicity (metabolic activity) ([6]; Mpro plasmid, higher concentration of 10 μM, 48 h): obviously cytotoxic
